Measured values as given in patent publication US20230203159A1.

Legend:
[1] = molecular target: human CD3 receptor on T cell surface (Jurkat cells, human CD4 T cells) (human) (UniProt P07766); test: flow cytometry on Jurkat cells, one site saturation fit
[2] = molecular target: mouse CD3epsilon protein (mouse) (UniProt P22646); test: ELISA, protein coated on plate
[3] = molecular target: Cynomolgus Monkey CD3epsilon protein (Cynomolgus monkey) (UniProt Q95LI5); test: ELISA, protein coated on plate
Sequence of Cynomolgus Monkey CD3epsilon protein (Cynomolgus monkey) (Q95LI5 22-117 limits assumed): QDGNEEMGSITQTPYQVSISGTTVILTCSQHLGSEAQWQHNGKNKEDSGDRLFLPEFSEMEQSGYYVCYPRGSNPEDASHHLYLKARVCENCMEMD

[4] = molecular target: Human CD3 epsilon (CD3epsilon) protein (His Tag) (human) (UniProt P07766); test: ELISA, protein coated on plate
Sequence of Human CD3 epsilon (CD3epsilon) protein (His Tag) (human) (P07766 23-126): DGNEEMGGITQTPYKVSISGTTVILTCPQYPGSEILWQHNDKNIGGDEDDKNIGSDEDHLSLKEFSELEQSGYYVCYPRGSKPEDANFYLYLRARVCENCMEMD

Sequence of human CD3 receptor on T cell surface (Jurkat cells, human CD4 T cells) (human) (P07766 23-207): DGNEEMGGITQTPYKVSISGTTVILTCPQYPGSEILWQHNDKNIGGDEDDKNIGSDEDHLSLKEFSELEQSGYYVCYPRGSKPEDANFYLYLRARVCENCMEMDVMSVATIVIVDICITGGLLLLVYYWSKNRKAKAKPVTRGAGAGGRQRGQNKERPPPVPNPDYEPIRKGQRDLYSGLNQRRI
Sequence of mouse CD3epsilon protein (mouse) (P22646 22-108 limits assumed): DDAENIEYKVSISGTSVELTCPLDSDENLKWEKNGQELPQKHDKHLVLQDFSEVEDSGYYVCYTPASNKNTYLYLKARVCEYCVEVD

Row | Best fit- Bmax [1] | ELISA A450 [2] [A450] | ELISA A450 [3] [A450] | ELISA A450 [4] [A450] | Substance
1 | 9.41e-11 | – | – | – | Benchmark antibody OKT3
2 | – | 0.179 | 0.046 | 0.046 | Negative Control
